Values quoted from earlier work as cited in publication PMC6181577.

Molecular target: UBQLN2 UBA (Homo sapiens) (UniProt Q9UHD9)
Sequence (Q9UHD9 578-624): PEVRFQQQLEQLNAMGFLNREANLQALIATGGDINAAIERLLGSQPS

UBQLN2 UBL, sequence (Q9UHD9 33-107): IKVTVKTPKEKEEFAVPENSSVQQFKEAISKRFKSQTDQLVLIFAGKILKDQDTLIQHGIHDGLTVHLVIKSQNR

For UBQLN2 UBL (from UniProt Q9UHD9), the Kd is given as 175 µM.
